According to IntAct's records for PubMed 22918830:

B1: Histone deacetylase 3 (Homo sapiens), O15379 (parent)
chain: MAKTVAYFYDPDVGNFHYGAGHPMKPHRLALTHSLVLHYGLYKKMIVFKPYQASQHDMCRFHSEDYIDFLQRVSPTNMQGFTKSLNAFNVGDDCPVFPGLFEFCSRYTGASLQGATQLNNKICDIAINWAGGLHHAKKFEASGFCYVNDIVIGILELLKYHPRVLYIDIDIHHGDGVQEAFYLTDRVMTVSFHKYGNYFFPGTGDMYEVGAESGRYYCLNVPLRDGIDDQSYKHLFQPVINQVVDFYQPTCIVLQCGADSLGCDRLGCFNLSIRGHGECVEYVKSFNIPLLVLGGGGYTVRNVARCWTYETSLLVEEAISEELPYSEYFEYFAPDFTLHPDVSTRIENQNSRQYLDQIRQTIFENLKMLNHAPSVQIHDVPADLLTYDRTDEADAEERGPEENYSRPEAPNEFYDGDHDNDKESDVEI

Variants of: B1
Settings: with hdac1_human HDAC1, Q13547
Sequence of hdac1_human HDAC1, Q13547 (Q13547 whole entry): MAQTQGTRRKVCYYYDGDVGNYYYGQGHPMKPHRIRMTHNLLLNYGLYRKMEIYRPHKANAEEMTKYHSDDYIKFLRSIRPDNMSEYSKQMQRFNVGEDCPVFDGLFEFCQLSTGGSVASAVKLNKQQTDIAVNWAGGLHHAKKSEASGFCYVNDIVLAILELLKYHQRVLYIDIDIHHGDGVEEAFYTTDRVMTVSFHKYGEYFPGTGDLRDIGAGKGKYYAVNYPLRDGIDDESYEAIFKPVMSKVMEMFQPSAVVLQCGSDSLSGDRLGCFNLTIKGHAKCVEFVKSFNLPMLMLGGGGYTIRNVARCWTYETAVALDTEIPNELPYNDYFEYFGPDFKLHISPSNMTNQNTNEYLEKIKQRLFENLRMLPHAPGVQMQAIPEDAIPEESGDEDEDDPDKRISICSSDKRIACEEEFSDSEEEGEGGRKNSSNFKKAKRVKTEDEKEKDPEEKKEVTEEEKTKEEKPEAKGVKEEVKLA

Variant | effect of a mutation on the interaction
H134Q | with no effect
